Reference: patent US20250018014A1, “METHOD FOR TREATING AND/OR PREVENTING REGNASE-1-RELATED DISEASE” (OSAKA UNIVERSITY, priority 2018, published 2025)
Where two headings read alike, the source gives them in different places. Positions of bridges follow the written chain, without caps; N, C: chain ends. Non-standard residues stand in square brackets, D forms with d. *: point of attachment. NMeA = CN[C@@H](C)C(=O)O; Pyrrolidide = C1CCN(*)C1; dNMeA = CN[C@H](C)C(=O)O

T1: full-length human Regnase-1 with a FLAG tag on the N-terminal side and a biotin ligase BirA recognition … (human, UniProt Q5D1E8 1-599, biotinylated at the BirA recognition sequence when required)
T1 sequence: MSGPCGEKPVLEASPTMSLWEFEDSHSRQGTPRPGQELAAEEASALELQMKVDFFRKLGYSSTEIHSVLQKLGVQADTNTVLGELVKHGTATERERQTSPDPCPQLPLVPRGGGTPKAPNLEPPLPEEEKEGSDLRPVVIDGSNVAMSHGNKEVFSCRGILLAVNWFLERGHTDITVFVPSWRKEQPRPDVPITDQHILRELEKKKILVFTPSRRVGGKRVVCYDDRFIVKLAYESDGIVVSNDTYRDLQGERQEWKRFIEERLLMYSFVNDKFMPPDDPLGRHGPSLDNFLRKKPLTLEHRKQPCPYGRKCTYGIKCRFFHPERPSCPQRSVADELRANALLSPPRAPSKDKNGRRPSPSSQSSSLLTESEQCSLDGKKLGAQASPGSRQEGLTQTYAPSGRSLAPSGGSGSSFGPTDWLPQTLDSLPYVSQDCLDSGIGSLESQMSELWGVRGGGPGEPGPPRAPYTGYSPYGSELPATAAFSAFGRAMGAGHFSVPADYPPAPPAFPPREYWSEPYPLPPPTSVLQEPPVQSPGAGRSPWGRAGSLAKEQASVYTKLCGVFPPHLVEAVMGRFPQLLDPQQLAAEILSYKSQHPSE

T2: C-terminal domain-deleted human Regnase-1 (amino acids 1 to 546) with N-terminal FLAG tag and C-terminal BirA … (human, UniProt Q5D1E8 1-546)
T2 sequence: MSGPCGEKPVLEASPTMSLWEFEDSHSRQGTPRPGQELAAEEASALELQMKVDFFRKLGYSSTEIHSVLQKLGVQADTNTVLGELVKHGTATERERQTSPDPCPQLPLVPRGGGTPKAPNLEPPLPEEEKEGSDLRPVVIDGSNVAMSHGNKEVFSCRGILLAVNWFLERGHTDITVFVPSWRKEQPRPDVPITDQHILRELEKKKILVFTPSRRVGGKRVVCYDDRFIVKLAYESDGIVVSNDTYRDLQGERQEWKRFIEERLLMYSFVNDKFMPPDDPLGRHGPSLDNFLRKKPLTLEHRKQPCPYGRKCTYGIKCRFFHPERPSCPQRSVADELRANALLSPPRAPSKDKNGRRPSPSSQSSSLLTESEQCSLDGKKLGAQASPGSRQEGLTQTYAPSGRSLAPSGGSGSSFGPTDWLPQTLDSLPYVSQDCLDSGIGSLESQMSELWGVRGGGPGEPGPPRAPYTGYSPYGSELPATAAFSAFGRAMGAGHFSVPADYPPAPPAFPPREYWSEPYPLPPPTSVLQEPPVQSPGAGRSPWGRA

T3: C-terminal human Regnase-1 (amino acids 301 to 599) with N-terminal FLAG tag and C-terminal BirA recognition … (human, UniProt Q5D1E8 301-599)
T3 sequence: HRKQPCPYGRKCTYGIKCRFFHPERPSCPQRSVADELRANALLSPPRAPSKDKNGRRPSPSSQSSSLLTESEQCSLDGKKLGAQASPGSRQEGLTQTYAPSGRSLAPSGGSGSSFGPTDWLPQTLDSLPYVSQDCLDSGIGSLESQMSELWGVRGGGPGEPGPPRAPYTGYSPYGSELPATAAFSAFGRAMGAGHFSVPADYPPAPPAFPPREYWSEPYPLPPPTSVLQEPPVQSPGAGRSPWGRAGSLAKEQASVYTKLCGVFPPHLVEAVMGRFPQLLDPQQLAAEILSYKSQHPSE


Legend:
Experiment in all cases: cell-based or functional assay
[1] = target: T1, full-length human Regnase-1 with a FLAG …
[2] = target: T2, C-terminal domain-deleted human …
[3] = target: T1, full-length human Regnase-1 with a FLAG …; remark: listed apart in the source
[4] = target: T2, C-terminal domain-deleted human …; remark: listed apart in the source
[5] = target: T3, C-terminal human Regnase-1 (amino acids …)
[6] = target: T1, full-length human Regnase-1 with a FLAG …; remark: listed apart in the source
[7] = target: T2, C-terminal domain-deleted human …; remark: listed apart in the source
[8] = target: T3, C-terminal human Regnase-1 (amino acids …); remark: listed apart in the source

Binder | 50% inhibition concentration, Regnase-1 phosphorylation by IKKβ (AlphaScreen) [1] | 50% inhibition concentration, Regnase-1 phosphorylation by TBK1 (AlphaScreen) [1] | 50% inhibition concentration, Regnase-1 phosphorylation by IKKβ (AlphaScreen) [2] | 50% inhibition concentration, Regnase-1 phosphorylation by TBK1 (AlphaScreen) [2] | 50% inhibition concentration, Regnase-1 phosphorylation by TBK1 (AlphaScreen) [3] | 50% inhibition concentration, Regnase-1 phosphorylation by TBK1 (AlphaScreen) [4] | 50% inhibition concentration, Regnase-1 phosphorylation by TBK1 (AlphaScreen) [5] | 50% inhibition concentration, Regnase-1 phosphorylation by IKKβ (AlphaScreen) [6] | 50% inhibition concentration, Regnase-1 phosphorylation by IKKβ (AlphaScreen) [7] | 50% inhibition concentration, Regnase-1 phosphorylation by IKKβ (AlphaScreen) [8]
[NMeA]YIWDFFGDLD-Pyrrolidide (lactam N-11) [PP4] | 19.5 µM | 61.9 µM | 8.3 µM | 44.9 µM | 61.9 µM | 44.9 µM | 35.9 µM | 19.5 µM | 8.3 µM | 12.8 µM
XGYANSWYNIWD (HELM PEPTIDE1{[meA].G.Y.A.N.S.W.Y.N.I.W.D.[C1CCN([*:1])C1]}$PEPTIDE1,PEPTIDE1,1:R1-12:R3$$$V2.0; SMILES CC[C@H](C)[C@@H]1NC(=O)[C@H](CC(N)=O)NC(=O)[C@H](Cc2ccc(O)cc2)NC(=O)[C@H](Cc2c[nH]c3ccccc23)NC(=O)[C@H](CO)NC(=O)[C@H](CC(N)=O)NC(=O)[C@H](C)NC(=O)[C@H](Cc2ccc(O)cc2)NC(=O)CNC(=O)[C@H](C)N(C)C(=O)C[C@@H](C(=O)N2CCCC2)NC(=O)[C@H](Cc2c[nH]c3ccccc23)NC1=O) [PP2] | 16.6 µM | 21.7 µM | 14 µM | 17.6 µM | 21.7 µM | 17.6 µM | 22.4 µM | 16.6 µM | 14 µM | 18.5 µM
XPNSSWFKIWD (HELM PEPTIDE1{[C[C@H](C(=O)[*:2])N(C)[*:1]].P.N.S.S.W.F.K.I.W.D.[C1CCN([*:1])C1]}$PEPTIDE1,PEPTIDE1,1:R1-11:R3$$$V2.0; SMILES CC[C@H](C)[C@@H]1NC(=O)[C@H](CCCCN)NC(=O)[C@H](Cc2ccccc2)NC(=O)[C@H](Cc2c[nH]c3ccccc23)NC(=O)[C@H](CO)NC(=O)[C@H](CO)NC(=O)[C@H](CC(N)=O)NC(=O)[C@@H]2CCCN2C(=O)[C@@H](C)N(C)C(=O)C[C@@H](C(=O)N2CCCC2)NC(=O)[C@H](Cc2c[nH]c3ccccc23)NC1=O) [PP6] | 17 µM | 13.1 µM | 20.3 µM | 14.5 µM | 13.1 µM | 14.5 µM | 16.8 µM | 17 µM | 20.3 µM | 17.5 µM
[dNMeA]KHASAWYRIWD-Pyrrolidide (lactam N-12) [PP3] | 4.6 µM | 3.9 µM | 8.3 µM | 5.7 µM | 3.9 µM | 5.7 µM | 7.1 µM | 4.6 µM | 8.3 µM | 6.8 µM
XHSNAWYNIWD (HELM PEPTIDE1{[meA].H.S.N.A.W.Y.N.I.W.D.[C1CCN([*:1])C1]}$PEPTIDE1,PEPTIDE1,1:R1-11:R3$$$V2.0; SMILES CC[C@H](C)[C@@H]1NC(=O)[C@H](CC(N)=O)NC(=O)[C@H](Cc2ccc(O)cc2)NC(=O)[C@H](Cc2c[nH]c3ccccc23)NC(=O)[C@H](C)NC(=O)[C@H](CC(N)=O)NC(=O)[C@H](CO)NC(=O)[C@H](Cc2c[nH]cn2)NC(=O)[C@H](C)N(C)C(=O)C[C@@H](C(=O)N2CCCC2)NC(=O)[C@H](Cc2c[nH]c3ccccc23)NC1=O) [PP5] | 23.6 µM | 24.2 µM | 20.4 µM | 19.1 µM | 24.2 µM | 19.1 µM | 40.4 µM | 23.6 µM | 20.4 µM | 31.3 µM
